Variants at the floor of the assay were thinned out.
B1: TPR 5TU (parent)
chain: GGAUCUUCUCGAUCUAACAAAAAAGACAAAUCUGCCACAAAGCUUGAGAGCAUCUUCGGAUGCAGAGGCGGCAGCCUUCGGUGGCGCGAUAGCGCCAACGUUCUCAACUAUGACACGCAAAACGCGUGCUCCGUUGAAUGGAGUUUAUCAUG

Variants of: B1
Test: polymerase ribozyme fitness, log enrichment relative to wild type (log ratio); higher = more active; in vitro selection for triplet polymerase activity
Outline: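 A single round of triplicate in vitro selection, including frozen incubation at −7 °C, was applied to PCR-built, transcribed mutant libraries of each subunit of a heterodimeric triplet polymerase ribozyme. Illumina sequencing of input and output libraries retained genotypes with ≥10 input reads and ≥1 read per output. Fitness is the base-2 logarithm of genotype enrichment divided by wild-type enrichment, from inverse-variance-weighted replicate averages.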

| Variant | polymerase ribozyme fitness (log ratio) |
| --- | --- |
| C87U C93G | -4.18 |
| U53A A91C C96U | ≤ -4.2 |
| C79G C96U | -3.8 |
| A26U C85U C96U G143U | -3.94 |
| C79G C85U | -4.04 |
| G88A C118U G141U U144A | ≤ -4.2 |
| A21U C116U | 0.00754 |
| A24U A47U G50A G59U A60G C87U C103G U109A A110G | -4.01 |
| A12C C105G | -2.6 |
| C76G C93A C96A G136C | ≤ -4.2 |
| C96U C99U | -0.378 |
| U53G U61A C85U G94U A97U G152A | ≤ -4.2 |
| A52U C105U | -1.7 |
| G34U C76U C87U G124U | ≤ -4.2 |
| A17U A23U A28G U55A G84A | ≤ -4.2 |
| A49U G50A A60C | -2.62 |
| U139A | -3.57 |
| A3U A26U G42C G58U C87A C125U C131G C132G | ≤ -4.2 |
| A26U C54G | -3.33 |
| C32G U53G A73C C131A A142G | ≤ -4.2 |
| A41U C131G | ≤ -4.2 |

| Variant | polymerase ribozyme fitness (log ratio) |
| --- | --- |
| G81A A91U U101G C103A | ≤ -4.2 |
| G141U U146G | 1.06 |
| G42A C79U U139A U145A C149G | ≤ -4.2 |
| U78G C79A C108U | ≤ -4.2 |
| U6C C35G A66G C96U U109A G126U | ≤ -4.2 |
| A12U G81A C85A C99U | -1.62 |
| G70A U144C | -3.66 |
| C54U C76G A89C A91G G94U U146G | ≤ -4.2 |
| A20C U53A U56G C85A A119C | -4 |
| G48A C54G C57U G81A C95U A115U C131A U146G G152U | ≤ -4.2 |
| G88A U104G | ≤ -4.2 |
| C10G A26U A107U A115U C129A U148G | ≤ -4.2 |
| U13G C32G A41C G141U | ≤ -4.2 |
| C8U U13C C14A A20U G50C C63A G71A C79G G92U A119C G141A | ≤ -4.2 |
| U53A G83U | -0.881 |
| A16G G48A C57G G58A A60C G88A C114A G141A | ≤ -4.2 |
| U15G C36U A47C C96G U144C | ≤ -4.2 |
| A3C A20G C85A | -2.54 |
| A17G C54G C93G A106G G126U G141U U144C | ≤ -4.2 |
| A22G U82A G83A C105U | 0.185 |
| A12G A39G | -1.53 |

| Variant | polymerase ribozyme fitness (log ratio) |
| --- | --- |
| G80A U82G | 0.0436 |
| U15A A20C C76U U82G A91U C118A G140C | ≤ -4.2 |
| U53A U56A C105U | -1.66 |
| C123U A137G | -0.927 |
| G71C G94A | -3.93 |
| G67U C87U U104G C132G U144C U148G | ≤ -4.2 |
| A47C G50A | -1.47 |
| U53A C85A G124A | -2.89 |
| A21C A52G C125A A142U | ≤ -4.2 |
| A113C C118A C125U | ≤ -4.2 |
| C10A A20U A21C A49C C51U C79U A110G | ≤ -4.2 |
| A115G A122U G124C | -1.96 |
| U4G A26G U33A C54G G86A G88U U90G | ≤ -4.2 |
| A17U A26U A47C A49C G83C C85G | ≤ -4.2 |
| A21C C57G C75A A98G A107U C123U A142U G143C | ≤ -4.2 |
| A28U G92C A113U | ≤ -4.2 |
| A17U C18U A22C | -1.32 |
| G50C G65C G68A G86U A147G | ≤ -4.2 |
| A30U U33C C36G U56A C85U C114G | -3.84 |
| A47U G83C A98U | -0.618 |
| C14U C36A A73G G83A G86A | ≤ -4.2 |

| Variant | polymerase ribozyme fitness (log ratio) |
| --- | --- |
| A17U A60C G88C | ≤ -4.2 |
| U53C C95U C125U A147U U148A U151G | ≤ -4.2 |
| C8G A21G C27A A73C G92C U104G A150U | ≤ -4.2 |
| A19G G25U G50A C93U A120G | ≤ -4.2 |
| A16U C38G U61A C75G G80A G100A G136U | ≤ -4.2 |
| C18G A21U C93U G141U | 0.314 |
| C54A U82A U134A U146C | -3.03 |
| C8A A12C | -3.07 |
| C5G C18G A41C G152U | -3.98 |
| C93U C103U | -1.61 |
| A21U G50C C57A A97G | -3.79 |
| A17C C93G | -3.8 |
| U15G A41C C93U | -1.93 |
| U31A C63U G84A C103A G112A A137U G152U | ≤ -4.2 |
| A49C C103A U139A | ≤ -4.2 |
| C57U C69U | -0.915 |
| A22C | -0.18 |
| U4A A41C U61A C63G A64C C72A C96G | ≤ -4.2 |
| A29G U78C | ≤ -4.2 |
| C85U A120G A150C | -3.75 |

From the RNAGym collection of RNA variant scans (doi:10.1073/pnas.2313332121)
